Test results as given in patent publication US20220249563A1 (LEGEND BIOTECH IRELAND, published 2022).

T1: extracellular domain of human DLL3 protein (aa27-466) having an N-terminal FLAG tag (AdipoGen, AG-40B-0151) (human, UniProt Q9NYJ7 27-466)
T1 construct: range 27-466; also called DLL3 ECD protein
T1 sequence (looked up): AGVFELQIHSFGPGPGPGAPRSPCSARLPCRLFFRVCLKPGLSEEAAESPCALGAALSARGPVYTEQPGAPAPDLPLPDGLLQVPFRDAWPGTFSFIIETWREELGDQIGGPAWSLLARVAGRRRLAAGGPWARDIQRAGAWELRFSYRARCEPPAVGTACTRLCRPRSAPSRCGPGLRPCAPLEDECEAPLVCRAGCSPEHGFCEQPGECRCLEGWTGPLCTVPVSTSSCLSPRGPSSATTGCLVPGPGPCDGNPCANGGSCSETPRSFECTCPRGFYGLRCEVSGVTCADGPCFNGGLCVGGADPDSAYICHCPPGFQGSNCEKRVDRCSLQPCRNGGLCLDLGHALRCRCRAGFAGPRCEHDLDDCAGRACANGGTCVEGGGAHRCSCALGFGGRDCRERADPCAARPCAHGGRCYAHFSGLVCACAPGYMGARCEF


molecular target: T1, extracellular domain of human DLL3 …; assay: ELISA (protein), FACS (cells)

Binder	binding result
AS64120 (VHH, camel sdAb; crude E. coli supernatant) VHH: QVRLVESGGGSVQAGGSLRLSCETSRYIYGNNCMAWFRQAPGKEREGVASIYPAGGRPYYADSVKGRFTISQDNAKNTVYLQMDSLKPEDTAMYYCAARSFSIADCATQSGITRSNFAYWGQGTQVTVSS	binds
AS63951 (VHH, camel sdAb; crude E. coli supernatant) VHH: QVHLMESGGGSVQAGGSLRLACETSRDIYGNNCMAWFRQAPGKEREGVASIYPAGGRPYYADSVKGRFTISQDNAKNTVYLQMDSLKPEDTAMYYCAARSFSIAVCATRSGITRSNFAYWGQGTQVTVSS	binds
AS64093 (VHH, camel sdAb; crude E. coli supernatant) VHH: QVHLVESGGGSVQAGGSLRLSCATSRYIYGNNCMAWFRQAPGKEREGVASIYPAGGRTYYADSVKGRFTISQDNAKNTVYLQIDSLKPEDTAMYYCAARSFSIGVCATQSGITWSNFAYWGQGTQVTVSS	binds
AS64118 (VHH, camel sdAb; crude E. coli supernatant) VHH: QVQLAESGGGSVQAGGSLRLSCAASGYTYSACRMAWYRQAPGKERELVSFINSAGSTYYADSVKGRFAISRDNAKTTVYLQMNALKAEDTAIYYCNTWDSSCRFQYWGQGTQVTVSS	binds
AS64183 (VHH, camel sdAb; crude E. coli supernatant) VHH: QVHLVESGGGSVQAGGSLRLSCAASGHTYSANCMAWFRRAPGKEREWVASVYTDDDSTMYTDSVKGRFTIFQDNAKNTVYLQMNSLKPEDTGMYICAADLSGGPAGCGYTHWGQGTQVTVSS	binds
AS64420 (VHH, camel sdAb; crude E. coli supernatant) VHH: EVQLVESGGGSVQAEGSLRLSCAASGDTSRSVWMGWARQVPGKEREVVATISTAGGSTWYTDSVKGRFTISQDNAKNTVYLQMNSLKPEDTAIYYCAARSRYATYWGQGTQVTVSS	binds
AS64513 (VHH, camel sdAb; crude E. coli supernatant) VHH: EVQLVESGGGSVQAGGSLRLSCVASDYPYIDNCMGWFRQGPGKEREGVAAACTGGGSTYYADSVKGRFTISRDNAKNTVYLQMNSLKPEDTDVYYCATGYYSGSGPGYLLPWRYNYWGQGTQVTVSS	binds
AS64276 (VHH, camel sdAb; crude E. coli supernatant) VHH: QVHLMESGGGSVQAGGSLSLSCVVSGYTGSSRCMAWFRQAPGKEREAVAQIFTGRGTTGYADSVKGRFTISQDNAKNTVYLRMNSLRPEDTAIYYCAASLGPGRGACGYNYWGQGTQVTVSS	binds
AS63984 (VHH, camel sdAb; crude E. coli supernatant) VHH: QVKLVESGGGSVQAGGSLRLSCAASGYTYSSNFMGWFRQAPGKEREGVATIVSGGGTTYYADSVRGRFTISQDNAKNTVYLQMNSLKPEDTAMYYCAAGGPVTNAPRWYPLRPPGYNYWGQGTQVTVSS	binds
AS64207 (VHH, camel sdAb; crude E. coli supernatant) VHH: EVQLVESGGGSVQAGGSLRLSCAASGYTYSSNFMGWFRQAPGKEREGVATIVSGGGTTYYADSVRGRFTISQDNAKNTVYLQMNSLKPEDTAMYYCAAGGPPTNGAKWYPLRPPGYNYWGQGTQVTVSS	binds
AS63948 (VHH, camel sdAb; crude E. coli supernatant) VHH: QVQLVESGGGSVQAGGSLRLSCTASGYTYRYLYMGWFRQTPGKEREGVACIYTGSGSTGYADSVKGRFTISQDNAENTVYLQMNSLKPEDTAMYYCAAASPRWGGTCRRWSEYNYWGQGTQVTVSS	binds

The next lines start with the values.

binding result	Binder
binds	AS64182 (VHH, camel sdAb; crude E. coli supernatant) VHH: QVHLMESGGGSVQAGGSLRLSCTASGQTSRYLYMGWFRQTPGKEREGVACIYTGSGSTGYADSVKGRFTISQDNAKNTVYLQTNSLKPEDTAMYYCAASSPHWGGTCRRWSEYKYWGQGTQVTVSS
binds	AS64154 (VHH, camel sdAb; crude E. coli supernatant) VHH: QVQLKESGGGSVQAGGSLRLSCTASGYTYRYLYMGWFRQTPGKEREGVACIYTGSGSTGYADSVKGRFTISQDNAKNTVYLQMNNLKPEDTAMYYCAASSPRWGGTCRRWSQYNYWGQGTQVTVSS
binds	AS64473 (VHH, camel sdAb; crude E. coli supernatant) VHH: QVRLVESGGGSVQAGGSLRLSCTASGYTYRYLYMAWFRQTPGKEREGVACIYTGSGTTGYADSVKGRFTISQDNAKNTVYLQMNSLNAEDTAMYYCAASSPQWGGTCRRWSEYNYWGQGTQVTVSS
binds	AS64163 (VHH, camel sdAb; crude E. coli supernatant) VHH: QVRLVESGGGSVQAGGSLRLSCAVSGYRYRWNCMAWFRQAPGKEREGVAAISTGSGSTYYAGSVKGRFTISQDNAKNMYLQMNSLKPEDTAMYYCAADPSVCPGGMWYSKEYRYWGQGTQVTVSS
binds	AS64475 (VHH, camel sdAb; crude E. coli supernatant) VHH: QVQLQESGGGSVQAGGSLRLSCAASGYTWSRNWMGWFRQAPGKEREGFATITISGGSTWYADSVKGRFTISLDNAGNTVYLQMNSLKPEDTAMYYCAARDTARTYWGQGTQVTVSS
binds	AS64124 (VHH, camel sdAb; crude E. coli supernatant) VHH: QVKLVESGGGSVQTGGSLRLSCAVSTYTPSNNYMGWFRQAPGKEREGVAAIATIGGTTRYADSVKGRFTISQDGAKNTIYLQMNGLKPEDTAMYYCAAGRPYSLPLPLPLESGAYRYWGQGTQVTVSS
binds	AS63930 (VHH, camel sdAb; crude E. coli supernatant) VHH: EVQLAESGGGSVQAGGSLRLSCAASGYTYSGNYMAWFRQAPGNEREGVAVVYNIDGGGRFTTYADSVKGRFTISRGNDKNTVYLQMNSLKPEDSGMYYCAAEVADPTWGSRDQRRYKYWGQGTQVTVSS
binds	AS64583 (VHH, camel sdAb; crude E. coli supernatant) VHH: EVQLAESGGGLVQAGGSLRLSCTASGFTIAVYTMGWFRQAPGKEREGISCTSWAGGRTYTADSVKGRFTISRDNAKNTLYLQMNSLKPEDTAMYYCAAKAHPDCSGDWSPSGYEYWGQGTQVTVSS
binds	AS64562 (VHH, camel sdAb; crude E. coli supernatant) VHH: EVQLVESGGGSVQAGGSLRLSCAASGYTARRDFMAWFRQVPGKEREGVAVIHTGGDTTYYADSVKGRFTISRDNAQNIMNLQMNSLKPEDTAMYYCAAGFRPRGGGYTGDVLAQAAAYNYWGQGTQVTVSS
binds	AS64135 (VHH, camel sdAb; crude E. coli supernatant) VHH: QVKLVESGGGSVQAGGSLRLSCVASTSTYCRYYMRWYRQAPGKEREFVSAMQPDGTTSYSDSVKGRFTMSQDRANNMLYLQMNSLRPEDTAMYYCKRDPMGGSRTPCTSAWGQGTQVTVSS
binds	AS64336 (VHH, camel sdAb; crude E. coli supernatant) VHH: QVQLVESGGGSVQAGGSLRLSCTTSGRTYSSCSMGWYRQAPGKERELVSHIFSDGSRYYADSVKGRFTISQDNAKNTVYLQMNSLKPEDTAMYYCNRRTGWAPRCAVPGYWGQGTQVTVSS
binds	AS64346 (VHH, camel sdAb; crude E. coli supernatant) VHH: QVHLVESGGGSVQAGGSLRLSCAASGYTYFMGWFRQAPQKEREWVATIGTGDIFNGAAYYVDSVKGRFAISQDNAKNTVYLQMNSLKPEDTAVYVCAAVQSKSSNYVLRDASTYNYWGQGTQVTVSS
